Reference: patent US20250019439A1 (Adimab, published 2025)

How the values were obtained:
[1] = molecular target: T1, CTL-62223; assay: SPR Carterra, yeast anti-ID
T1 construct: also called mosunetuzumab
Procedure, shortened: (§1)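 Surface plasmon resonance on a Carterra LSA at 25° C, HBSTE buffer. The anti-CD3 antibody is Fc-captured (100 nM, 5 min) and the anti-idiotype antibody serves as analyte; dissociation lasts 300s and the surface is regenerated with 10 mM glycine pH 1.7.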

[2] = molecular target: T2, ADI-26915; assay: SPR Carterra, yeast anti-ID
T2 construct: anti-CD3 antibody made in CHO cells, captured by anti-human Fc
T2 sequence (VH, as listed by the source, chain 1 of 2): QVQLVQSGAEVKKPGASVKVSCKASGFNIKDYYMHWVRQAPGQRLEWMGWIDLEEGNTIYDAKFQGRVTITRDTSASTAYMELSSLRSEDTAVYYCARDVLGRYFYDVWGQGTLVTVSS
T2 sequence (VL, as listed by the source, chain 2 of 2): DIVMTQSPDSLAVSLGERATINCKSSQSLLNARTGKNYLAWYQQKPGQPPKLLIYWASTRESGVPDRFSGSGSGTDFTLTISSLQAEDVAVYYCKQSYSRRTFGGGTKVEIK
Procedure, shortened: as §1

[3] = molecular target: T3, ADI-70327; assay: SPR Carterra, yeast anti-ID
T3 construct: anti-CD3 antibody made in CHO cells, captured by anti-human Fc
T3 sequence (VH, as listed by the source limits assumed, chain 1 of 2): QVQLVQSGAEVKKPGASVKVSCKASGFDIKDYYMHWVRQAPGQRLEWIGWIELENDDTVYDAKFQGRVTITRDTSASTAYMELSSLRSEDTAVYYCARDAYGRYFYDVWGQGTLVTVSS
T3 sequence (VL, as listed by the source limits assumed, chain 2 of 2): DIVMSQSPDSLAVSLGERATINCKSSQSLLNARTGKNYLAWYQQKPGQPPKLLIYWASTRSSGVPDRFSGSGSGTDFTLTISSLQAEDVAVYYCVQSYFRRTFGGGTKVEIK
Procedure, shortened: as §1

[4] = molecular target: T4, ADI-70330; assay: SPR Carterra, yeast anti-ID
T4 construct: anti-CD3 antibody made in CHO cells, captured by anti-human Fc
Procedure, shortened: as §1

[5] = molecular target: T5, CTL-62228; assay: SPR Carterra, yeast anti-ID
T5 construct: also called glofitamab
Procedure, shortened: as §1

[6] = molecular target: T6, ADI-67445; assay: SPR Carterra, yeast anti-ID
T6 construct: anti-CD3 antibody made in CHO cells, captured by anti-human Fc
T6 sequence (VH, as listed by the source limits assumed, chain 1 of 2): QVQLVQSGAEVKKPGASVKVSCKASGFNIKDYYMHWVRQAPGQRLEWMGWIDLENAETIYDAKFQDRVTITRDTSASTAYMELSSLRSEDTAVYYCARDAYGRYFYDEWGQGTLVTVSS
Procedure, shortened: as §1

[7] = molecular target: T7, CTL-62240; assay: SPR Carterra, yeast anti-ID
T7 construct: also called ONO-4685
Procedure, shortened: as §1

[8] = molecular target: T8, CTL-62227; assay: SPR Carterra, yeast anti-ID
T8 construct: also called odronextamab
Procedure, shortened: as §1

[9] = molecular target: T9, ADI-26921 IgG; assay: SPR Carterra avidity, yeast anti-ID
T9 construct: anti-CD3 IgG
T9 sequence (VH, as listed by the source limits assumed, chain 1 of 2): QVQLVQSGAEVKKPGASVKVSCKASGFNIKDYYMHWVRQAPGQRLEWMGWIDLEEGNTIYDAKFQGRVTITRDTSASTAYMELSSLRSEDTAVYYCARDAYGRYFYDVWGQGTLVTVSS
T9 sequence (VL, as listed by the source limits assumed, chain 2 of 2): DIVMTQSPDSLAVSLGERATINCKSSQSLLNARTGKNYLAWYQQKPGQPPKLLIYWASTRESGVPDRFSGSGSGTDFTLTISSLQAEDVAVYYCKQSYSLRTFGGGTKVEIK
Procedure, shortened: as §1

[10] = molecular target: T10, ADI-76362; assay: SPR Carterra avidity, yeast anti-ID
T10 construct: anti-CD3 antibody made in CHO cells, captured by anti-human Fc
T10 sequence (VH, as listed by the source, chain 1 of 2): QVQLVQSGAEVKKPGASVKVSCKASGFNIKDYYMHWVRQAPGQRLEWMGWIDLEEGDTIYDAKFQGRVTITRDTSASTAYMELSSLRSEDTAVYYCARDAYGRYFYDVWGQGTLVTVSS
Procedure, shortened: as §1

[11] = molecular target: T11, ADI-74968; assay: SPR Carterra avidity, yeast anti-ID
T11 construct: pH-dependent anti-CD3 antibody made in CHO cells
Procedure, shortened: as §1

[12] = molecular target: T12, ADI-48592; assay: SPR Carterra avidity, yeast anti-ID
T12 construct: pH-dependent anti-CD3 antibody made in CHO cells
T12 sequence (VH, as listed by the source, chain 1 of 2): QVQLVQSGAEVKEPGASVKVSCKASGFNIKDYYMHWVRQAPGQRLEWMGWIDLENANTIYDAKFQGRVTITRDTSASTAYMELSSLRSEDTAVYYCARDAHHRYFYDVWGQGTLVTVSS
T12 sequence (VL, as listed by the source, chain 2 of 2): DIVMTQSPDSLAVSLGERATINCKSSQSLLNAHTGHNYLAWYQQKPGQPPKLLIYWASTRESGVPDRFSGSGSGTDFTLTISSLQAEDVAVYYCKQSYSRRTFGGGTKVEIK
Procedure, shortened: as §1

[13] = molecular target: T13, ADI-67450; assay: SPR Carterra avidity, yeast anti-ID
T13 construct: anti-CD3 antibody made in CHO cells, captured by anti-human Fc
Procedure, shortened: as §1

[14] = molecular target: T14, ADI-74965; assay: SPR Carterra avidity, yeast anti-ID
T14 construct: pH-dependent anti-CD3 antibody made in CHO cells
Procedure, shortened: as §1

[15] = molecular target: T15, ADI-48587; assay: SPR Carterra avidity, yeast anti-ID
T15 construct: pH-dependent anti-CD3 antibody made in CHO cells
T15 sequence (VH, as listed by the source, chain 1 of 2): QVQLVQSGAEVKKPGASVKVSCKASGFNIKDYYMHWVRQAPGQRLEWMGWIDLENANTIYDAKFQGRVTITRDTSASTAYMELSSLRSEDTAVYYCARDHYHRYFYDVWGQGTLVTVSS
T15 sequence (VL, as listed by the source, chain 2 of 2): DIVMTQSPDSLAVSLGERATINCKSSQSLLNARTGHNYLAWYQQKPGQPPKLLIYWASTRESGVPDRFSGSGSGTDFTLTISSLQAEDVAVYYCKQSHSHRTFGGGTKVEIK
Procedure, shortened: as §1

[16] = molecular target: T16, ADI-70326; assay: SPR Carterra avidity, yeast anti-ID
T16 construct: anti-CD3 antibody made in CHO cells, captured by anti-human Fc
Procedure, shortened: as §1

[17] = molecular target: T17, ADI-48576; assay: SPR Carterra avidity, yeast anti-ID
T17 construct: pH-dependent anti-CD3 antibody made in CHO cells
T17 sequence (VH, as listed by the source, chain 1 of 2): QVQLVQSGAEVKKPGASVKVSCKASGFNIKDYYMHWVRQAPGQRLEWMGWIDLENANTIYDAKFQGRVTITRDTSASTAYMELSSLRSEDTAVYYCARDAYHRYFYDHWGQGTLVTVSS
T17 sequence (VL, as listed by the source, chain 2 of 2): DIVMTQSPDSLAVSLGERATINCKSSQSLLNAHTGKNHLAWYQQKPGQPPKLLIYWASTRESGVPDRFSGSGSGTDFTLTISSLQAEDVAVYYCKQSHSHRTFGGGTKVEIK
Procedure, shortened: as §1

[18] = molecular target: T18, ADI-76358; assay: SPR Carterra avidity, yeast anti-ID
T18 construct: anti-CD3 antibody made in CHO cells, captured by anti-human Fc
Procedure, shortened: as §1

[19] = molecular target: T19, ADI-76361; assay: SPR Carterra avidity, yeast anti-ID
T19 construct: anti-CD3 antibody made in CHO cells, captured by anti-human Fc
T19 sequence (VH, as listed by the source, chain 1 of 2): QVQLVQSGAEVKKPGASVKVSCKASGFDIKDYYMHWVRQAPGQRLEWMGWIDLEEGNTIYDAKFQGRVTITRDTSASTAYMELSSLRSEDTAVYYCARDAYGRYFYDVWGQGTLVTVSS
Procedure, shortened: as §1

[20] = molecular target: T20, ADI-26912; assay: SPR Carterra avidity, yeast anti-ID
T20 construct: anti-CD3 antibody made in CHO cells, captured by anti-human Fc
Procedure, shortened: as §1

[21] = molecular target: T21, ADI-26909; assay: SPR Carterra avidity, yeast anti-ID
T21 construct: anti-CD3 antibody made in CHO cells, captured by anti-human Fc
T21 sequence (VH, as listed by the source limits assumed, chain 1 of 2): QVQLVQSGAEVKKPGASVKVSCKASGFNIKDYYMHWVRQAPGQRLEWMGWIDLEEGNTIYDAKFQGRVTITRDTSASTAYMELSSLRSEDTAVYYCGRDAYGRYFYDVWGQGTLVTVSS
Procedure, shortened: as §1

[22] = molecular target: T22, ADI-67447; assay: SPR Carterra avidity, yeast anti-ID
T22 construct: anti-CD3 antibody made in CHO cells, captured by anti-human Fc
Procedure, shortened: as §1

[23] = molecular target: T23, ADI-76360; assay: SPR Carterra avidity, yeast anti-ID
T23 construct: anti-CD3 antibody made in CHO cells, captured by anti-human Fc
Procedure, shortened: as §1

[24] = molecular target: T24, ADI-50024; assay: SPR Carterra avidity, yeast anti-ID
T24 construct: anti-CD3 antibody made in CHO cells, captured by anti-human Fc
Procedure, shortened: as §1

[25] = molecular target: T25, ADI-76359; assay: SPR Carterra avidity, yeast anti-ID
T25 construct: anti-CD3 antibody made in CHO cells, captured by anti-human Fc
Procedure, shortened: as §1

[26] = molecular target: T26, ADI-74967; assay: SPR Carterra avidity, yeast anti-ID
T26 construct: pH-dependent anti-CD3 antibody made in CHO cells
T26 sequence (VL, as listed by the source, chain 2 of 2): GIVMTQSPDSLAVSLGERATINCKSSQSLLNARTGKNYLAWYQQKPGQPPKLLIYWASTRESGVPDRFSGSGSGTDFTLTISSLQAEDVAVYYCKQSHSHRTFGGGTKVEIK
Procedure, shortened: as §1

[27] = molecular target: T27, ADI-74966; assay: SPR Carterra avidity, yeast anti-ID
T27 construct: pH-dependent anti-CD3 antibody made in CHO cells
T27 sequence (VL, as listed by the source, chain 2 of 2): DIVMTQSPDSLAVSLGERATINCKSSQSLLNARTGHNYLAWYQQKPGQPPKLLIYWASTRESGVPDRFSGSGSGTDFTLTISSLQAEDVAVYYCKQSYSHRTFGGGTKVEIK
Procedure, shortened: as §1

[28] = molecular target: T28, ADI-48650; assay: SPR Carterra avidity, yeast anti-ID
T28 construct: pH-dependent anti-CD3 antibody made in CHO cells
T28 sequence (VH, as listed by the source, chain 1 of 2): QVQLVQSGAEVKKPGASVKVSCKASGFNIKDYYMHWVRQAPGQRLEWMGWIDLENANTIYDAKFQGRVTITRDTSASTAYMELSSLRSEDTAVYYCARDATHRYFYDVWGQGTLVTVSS
T28 sequence (VL, as listed by the source, chain 2 of 2): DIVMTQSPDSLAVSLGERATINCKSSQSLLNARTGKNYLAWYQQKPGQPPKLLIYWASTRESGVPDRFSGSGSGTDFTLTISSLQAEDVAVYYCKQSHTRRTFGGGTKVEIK
Procedure, shortened: as §1

[29] = molecular target: T29, ADI-26913 IgG; assay: SPR Carterra avidity, yeast anti-ID, *koff limit
T29 construct: anti-CD3 IgG
T29 sequence (VH, as listed by the source limits assumed, chain 1 of 2): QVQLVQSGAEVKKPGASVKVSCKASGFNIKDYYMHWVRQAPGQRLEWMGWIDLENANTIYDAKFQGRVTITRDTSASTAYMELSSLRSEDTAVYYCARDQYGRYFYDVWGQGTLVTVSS
Procedure, shortened: as §1

[30] = molecular target: T30, ADI-26943; assay: SPR Carterra avidity, yeast anti-ID, *koff limit
T30 construct: anti-CD3 antibody made in CHO cells, captured by anti-human Fc
T30 sequence (VH, as listed by the source, chain 1 of 2): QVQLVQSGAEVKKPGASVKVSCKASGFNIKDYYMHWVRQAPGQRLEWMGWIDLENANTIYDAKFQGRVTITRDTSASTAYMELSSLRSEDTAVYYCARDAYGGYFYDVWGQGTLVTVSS
T30 sequence (VL, as listed by the source, chain 2 of 2): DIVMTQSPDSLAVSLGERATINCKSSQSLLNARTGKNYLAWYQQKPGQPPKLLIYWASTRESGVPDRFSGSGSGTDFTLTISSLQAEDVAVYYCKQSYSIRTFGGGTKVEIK
Procedure, shortened: as §1

[31] = molecular target: T31, ADI-26924; assay: SPR Carterra avidity, yeast anti-ID, *koff limit
T31 construct: anti-CD3 antibody made in CHO cells, captured by anti-human Fc
T31 sequence (VH, as listed by the source, chain 1 of 2): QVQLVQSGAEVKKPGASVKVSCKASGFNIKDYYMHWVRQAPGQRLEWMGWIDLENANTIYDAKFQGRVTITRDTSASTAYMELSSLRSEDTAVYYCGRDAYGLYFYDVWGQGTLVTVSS
Procedure, shortened: as §1

[32] = molecular target: T32, ADI-26916 IgG; assay: SPR Carterra avidity, yeast anti-ID, *koff limit
T32 construct: anti-CD3 IgG
Procedure, shortened: as §1

[33] = molecular target: T33, ADI-76357; assay: SPR Carterra avidity, yeast anti-ID, *koff limit
T33 construct: anti-CD3 antibody made in CHO cells, captured by anti-human Fc
Procedure, shortened: as §1

[34] = molecular target: T34, ADI-26920 IgG; assay: SPR Carterra avidity, yeast anti-ID, *koff limit
T34 construct: anti-CD3 IgG
Procedure, shortened: as §1

[35] = molecular target: T35, ADI-26919; assay: SPR Carterra avidity, yeast anti-ID, *koff limit
T35 construct: anti-CD3 antibody made in CHO cells, captured by anti-human Fc
T35 sequence (VH, as listed by the source limits assumed, chain 1 of 2): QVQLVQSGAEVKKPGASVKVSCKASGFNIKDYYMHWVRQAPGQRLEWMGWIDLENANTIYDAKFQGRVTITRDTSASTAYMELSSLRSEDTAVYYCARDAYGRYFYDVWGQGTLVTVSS
Procedure, shortened: as §1

[36] = molecular target: T36, ADI-26906 IgG; assay: SPR Carterra avidity, yeast anti-ID, *koff limit
T36 construct: anti-CD3 IgG
Procedure, shortened: as §1

[37] = molecular target: T37, ADI-22523 Fab; assay: BLI; tip anti-ID IgG, solution ADI-22523 Fab
T37 construct: anti-CD3 Fab by papain digestion of the IgG
Procedure, shortened: (§2)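 Bio-layer interferometry with anti-ID IgG loaded on AHC tips. KD (koff/kon) from 1:1 binding model fit; avid format.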

[38] = molecular target: T38, ADI-22523 IgG; assay: BLI; tip anti-ID IgG, solution ADI-22523 IgG
T38 construct: anti-CD3 IgG
Procedure, shortened: as §2

B1: ADI-34141 (antibody, V domains shown)
VH: EVQLLESGGGLVQPGGSLRLSCAASGFTFSSYAMSWVRQAPGKGLEWVSTISGSGGSTYYADSVKGRFTISRDNSKNTLYLQMNSLRAEDTAVYYCARLGGRRGSGSSYYYYYGMDVWGQGTTVTVSS
VL: not shown
notes: anti-ID IgG
binding result [1]: no binding (tested: up to 200 nM)
binding result [2]: no binding (tested: up to 200 nM)
binding result [3]: no binding (tested: up to 200 nM)
binding result [4]: no binding (tested: up to 200 nM)
binding result [5]: no binding (tested: up to 200 nM)
binding result [6]: no binding (tested: up to 200 nM)
binding result [7]: no binding (tested: up to 200 nM)
binding result [8]: no binding (tested: up to 200 nM)
binding result [9]: binds
binding result [10]: binds
Kd [11]: 63 nM
binding result [12]: binds
binding result [13]: binds
Kd [14]: 33 nM
binding result [15]: binds
binding result [16]: binds
Kd [17]: 22 nM
binding result [18]: binds
binding result [19]: binds
binding result [20]: binds
binding result [21]: binds
Kd [22]: 17 nM
Kd [23]: 54 nM
binding result [24]: binds
Kd [25]: 14 nM
Kd [26]: 32 nM
Kd [27]: 51 nM
binding result [28]: binds
Kd [29]: 7 nM
Kd [30]: 5.7 nM
Kd [31]: 5.4 nM
Kd [32]: 10 nM
Kd [33]: 7.6 nM
Kd [34]: 7.1 nM
Kd [35]: 10 nM
Kd [36]: 13 nM
Kd [37]: 16.5 nM
Kd [38]: 2.83 nM
